Among the data in the supplement of paper PMC10724198 are protein stability index values, retold here.

± gives the standard deviation of the averaged measurements.

Series [1] deals with Saccharomyces cerevisiae. As to the kind of experiment: protein stability index of tFT-peptide fusion in deletion strain of DAS1 (PSI (0-1 scale)); higher = more stable (slower turnover). How it is done:
(§1)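 MPS profiling in S. cerevisiae of two library types built from selected 12-aa C-degron peptides (IN1, IN2, LN1, LN3, VN2, R1-R5, W1-W3, Atg1 and Rpa12 C-termini): saturation mutagenesis libraries and C-terminal +1 capping libraries (13 aa). Each peptide is fused to the C-terminus of a sfGFP-mCherry timer, after a GGGS linker. Cells are FACS-sorted into 8 mCherry/sfGFP bins and sequenced. PSI runs from 0 (unstable) to 1 (stable), measured once in wild type and in the das1Δ or doa10Δ background.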

The test system of series [2] is Saccharomyces cerevisiae. The series can be described thus: protein stability index of tFT-peptide fusion in wild type (PSI (0-1 scale)); higher = more stable (slower turnover). Particulars: genetic background: wild type. As to the method:
as §1

The test system of series [3] is Saccharomyces cerevisiae. The series can be described thus: protein stability index of tFT-peptide fusion (C-terminal peptide) (PSI (0-1 scale)); higher = more stable (slower turnover). Particulars: temperature: 30 C. How it is done:
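MPS profiling in S. cerevisiae of the yeast C-terminome library: the last 12 aa of each annotated ORF are fused to the C-terminus of a sfGFP-mCherry timer, after a GGGS linker. Cells are FACS-sorted into 8 mCherry/sfGFP bins and deep-sequenced. PSI runs from 0 (unstable) to 1 (stable); wild type and das1Δ backgrounds, two technical replicates each.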

Where [4] appears, read: genetic background: das1 deletion.
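For protein stability index of tFT-peptide fusion in deletion strain of DAS1 in this document: PSI is a weighted mean of each variant's read distribution over the sorted stability bins, computed only for variants having over 10 reads in total.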
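For protein stability index of tFT-peptide fusion in wild type in this document: PSI derived as read-weighted mean over the 8 sorting bins, only variants exceeding 10 total reads kept, mCherry placed adjacent to the peptide and sfGFP distal.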

With ARFRVGLWRGAS, the protein stability index in the series on Saccharomyces cerevisiae [1] worked out at 0.668; in the series with Saccharomyces cerevisiae [2] it was 0.56.

As for ARPRVGLWRGAS, the protein stability index is 0.681 in the series on Saccharomyces cerevisiae [1] and 0.65 in the series on Saccharomyces cerevisiae [2].

ARWAVGLWRGAS: the protein stability index with Saccharomyces cerevisiae [1] was determined as 0.71; with Saccharomyces cerevisiae [2] it was 0.428.

Take ARWRQGLWRGAS: the protein stability index stood at 0.616 with Saccharomyces cerevisiae [1] and 0.678 in the series with Saccharomyces cerevisiae [2].

On to ARWRVGGWRGAS, for which the protein stability index was found to be 0.701 in the series with Saccharomyces cerevisiae [1] and 0.557 with Saccharomyces cerevisiae [2].

In the case of ARWRVGLWDGAS, the protein stability index with Saccharomyces cerevisiae [1] came out at 0.688; with Saccharomyces cerevisiae [2] it was 0.705.

Turning to ARWRVGLWRGAE, the protein stability index came to 0.685 in the series on Saccharomyces cerevisiae [1] and 0.644 in the series with Saccharomyces cerevisiae [2].

Consider ARWRVGLWRGAK, for which the protein stability index in the series on Saccharomyces cerevisiae [1] was 0.659; in the series on Saccharomyces cerevisiae [2], 0.669.

Turning to ARWRVGLWRGASC, the values for the protein stability index with Saccharomyces cerevisiae [1] and in the series with Saccharomyces cerevisiae [2] were 0.669 and 0.628, respectively.

ARWRVGLWRGASS: the figures for the protein stability index in the series with Saccharomyces cerevisiae [1] and with Saccharomyces cerevisiae [2] were 0.688 and 0.593, respectively.

On to ARWRVGLWRGCS, for which the protein stability index in the series on Saccharomyces cerevisiae [1] came to 0.683; in the series on Saccharomyces cerevisiae [2], 0.266.

In the case of ARWRVGLWRGYS, the protein stability index in the series with Saccharomyces cerevisiae [1] came out at 0.659; in the series with Saccharomyces cerevisiae [2], 0.621.

As to ARWRVGLWRMAS, the figures for the protein stability index in the series on Saccharomyces cerevisiae [1] and with Saccharomyces cerevisiae [2] were 0.683 and 0.0865, respectively.

As to ARWRVGMWRGAS, the protein stability index is 0.701 in the series on Saccharomyces cerevisiae [1] and 0.458 with Saccharomyces cerevisiae [2].

For ARWRVGNWRGAS, the protein stability index in the series with Saccharomyces cerevisiae [1] came to 0.678; in the series on Saccharomyces cerevisiae [2] it was 0.684.

TTHGLKQKLQHA [RTN2 C-terminal 12 aa]: the protein stability index in the series on Saccharomyces cerevisiae [3] (setting [4]) was determined as 0.701 ± 0.011; with Saccharomyces cerevisiae [3] (genetic background: wild type), 0.698 ± 0.024.

As for TTRYAKEMNIIS [HIR2 C-terminal 12 aa], the results for the protein stability index with Saccharomyces cerevisiae [3] (setting [4]) and with Saccharomyces cerevisiae [3] (genetic background: wild type) were 0.694 ± 0.031 and 0.705 ± 0.054, respectively.

TVSSVESVLAHL [AHP1 C-terminal 12 aa]: the protein stability index with Saccharomyces cerevisiae [3] (setting [4]) amounted to 0.728 ± 0.016; in the series on Saccharomyces cerevisiae [3] (genetic background: wild type), 0.7489 ± 0.0029.

Turning to VACDSDSSSTIE [YEN1 C-terminal 12 aa], the figures for the protein stability index with Saccharomyces cerevisiae [3] (setting [4]) and in the series with Saccharomyces cerevisiae [3] (genetic background: wild type) were 0.679 ± 0.016 and 0.699 ± 0.014, respectively.

Consider VATYLREHEYDQ [AAP1 C-terminal 12 aa], for which the protein stability index came out at 0.6847 ± 0.0021 with Saccharomyces cerevisiae [3] (setting [4]) and 0.7314 ± 0.0051 with Saccharomyces cerevisiae [3] (genetic background: wild type).

As for VDFIKEFAEKNA [SER1 C-terminal 12 aa], the protein stability index with Saccharomyces cerevisiae [3] (setting [4]) worked out at 0.708 ± 0.011; in the series on Saccharomyces cerevisiae [3] (genetic background: wild type) it was 0.706 ± 0.014.

Turning to VDIRSFRQDMDL [YJR056C C-terminal 12 aa], the protein stability index in the series on Saccharomyces cerevisiae [3] (setting [4]) worked out at 0.703 ± 0.021; in the series on Saccharomyces cerevisiae [3] (genetic background: wild type), 0.664 ± 0.017.

Consider VDNFISVLKQGQ [LOS1 C-terminal 12 aa], for which the figures for the protein stability index in the series with Saccharomyces cerevisiae [3] (setting [4]) and in the series on Saccharomyces cerevisiae [3] (genetic background: wild type) were 0.7081 ± 0.0044 and 0.668 ± 0.0073, respectively.

Consider VDVLKLNDPTRH [BCY1 C-terminal 12 aa], for which the protein stability index in the series with Saccharomyces cerevisiae [3] (setting [4]) stood at 0.716 ± 0.031; in the series on Saccharomyces cerevisiae [3] (genetic background: wild type) it was 0.706 ± 0.042.

For the sequence VEAVKRVLTKKF [IMG2 C-terminal 12 aa], the protein stability index was 0.6883 ± 0.0047 in the series with Saccharomyces cerevisiae [3] (setting [4]) and 0.694 ± 0.012 in the series with Saccharomyces cerevisiae [3] (genetic background: wild type).

Take VFDENMYSKYSS [BRO1 C-terminal 12 aa]: the protein stability index amounted to 0.712 ± 0.012 in the series with Saccharomyces cerevisiae [3] (setting [4]) and 0.712 ± 0.032 with Saccharomyces cerevisiae [3] (genetic background: wild type).

Turning to “VFLVISQHSLHS [YDR545C-A C-terminal 12 aa]”, the protein stability index with Saccharomyces cerevisiae [3] (setting [4]) came out at 0.6541 ± 0.0036; in the series with Saccharomyces cerevisiae [3] (genetic background: wild type), 0.652 ± 0.011.

Regarding VGADSYAEEEEF [TUB1 C-terminal 12 aa], the protein stability index in the series on Saccharomyces cerevisiae [3] (setting [4]) is 0.687 ± 0.032; in the series with Saccharomyces cerevisiae [3] (genetic background: wild type), 0.676 ± 0.032.

As for VGDIVWKIRNIN [TTI1 C-terminal 12 aa], the protein stability index with Saccharomyces cerevisiae [3] (setting [4]) worked out at 0.689 ± 0.026; in the series on Saccharomyces cerevisiae [3] (genetic background: wild type) it was 0.1985 ± 0.0019.

In the case of VGDLEAGLRRKK [IMG1 C-terminal 12 aa], the protein stability index was 0.712 ± 0.0076 in the series on Saccharomyces cerevisiae [3] (setting [4]) and 0.6655 ± 0.0024 in the series on Saccharomyces cerevisiae [3] (genetic background: wild type).

Take VHCGCRGCASTD [BUD31 C-terminal 12 aa]: the protein stability index was 0.669 ± 0.0018 in the series on Saccharomyces cerevisiae [3] (setting [4]) and 0.673 ± 0.017 in the series on Saccharomyces cerevisiae [3] (genetic background: wild type).

In the case of VIDLDNSVAREV [MDL1 C-terminal 12 aa], the protein stability index with Saccharomyces cerevisiae [3] (setting [4]) came to 0.7044 ± 0.0069; with Saccharomyces cerevisiae [3] (genetic background: wild type), 0.64 ± 0.007.

With VILMVDFTLVGP [YDR262W C-terminal 12 aa], the protein stability index worked out at 0.429 ± 0.023 in the series with Saccharomyces cerevisiae [3] (setting [4]) and 0.426 ± 0.0078 with Saccharomyces cerevisiae [3] (genetic background: wild type).
